{"source": "patent US20030147861A1", "about": "“Compounds and methods for the modulation of immune responses” (Genesis Research and Development Corporation Limited, priority 2001, published 2003)", "key": {"[1]": {"system": "MAP kinase signaling pathway in THP-1 cells (IL-10 production)", "test": "AVAC-induced IL-10 production by THP-1 cells pre-treated with MAP kinase inhibitors (ELISA)", "assay_type": "cell-based, human", "conditions": "inhibitor pre-treatment 120 minutes; 25 μg/mL AVAC, 24 hours", "description": "The involvement of the MAP kinase signaling pathway in the production of IL-10 by THP-1 cells in response to AVAC was assessed as follows.\nPrior to culture with AVAC, 50 μL of THP-1 cells in cRPMI-10 were pre-treated in duplicate microplate wells with 50 μL of serially diluted PD98059 (Calbiochem cat. no. 51300, a selective inhibitor of MAP kinase), SB202190 (Calbiochem cat. no. 559388, an inhibitor of p38 MAP kinase and p38β MAP kinase), SB203580 (Calbiochem cat. no. 559389, a highly specific inhibitor of p38 MAP kinase), with SB202474 (Calbiochem cat. no. 559387, a negative control for MAP kinase inhibition studies), or with no added chemicals. MAP kinase inhibitors and control were used at a final concentration of 100 μg/mL, 20 μg/mL, 4.0 μg/mL, 0.8 μg/mL, 0.16 μg/mL, or […]. Pretreatment of cells with MAP kinase inhibitors and control was for 120 minutes in a water-jacketed, humidified incubator at 37° C. supplied with 5% CO2 in air.\nFollowing pretreatment, the cells were washed once in cPRMI-10 to remove inhibitor or control chemicals. […] IL-10 content in the microculture supernatants was determined by sandwich ELISA using a commercially available set (eBioscience cat. no. 88-7106-77,) according to the manufacturer's recommendations. […]"}, "[2]": {"system": "CD40, CD80 and CD86 on dendritic cells", "assay_type": "cell-based, human"}, "[3]": {"system": "CD69 on αβT cells, γδT cells and NK cells", "assay_type": "cell-based, human"}, "[4]": {"system": "IFNγ production by lymph node cells", "test": "IFNγ production by lymph node cells from GV protein-immunized mice (enzyme-linked immunoassay)", "assay_type": "cell-based, female BALB/cByJ mice", "conditions": "lymph node cells of mice immunized with the same GV protein", "description": "(§1) The immunogenicity of Mycobacterium vaccae recombinant proteins (referred to herein as GV recombinant proteins) was tested by injecting female BALB/cByJ mice in each hind foot-pad with 10 μg of recombinant GV proteins emulsified in incomplete Freund's adjuvant (IFA). Control mice received phosphate buffered saline in IFA. The draining popliteal lymph nodes were excised 10 days later and the cells obtained therefrom were stimulated with the immunizing GV protein and assayed for proliferation by measuring the uptake of tritiated thymidine. The amount of interferon gamma (IFNγ) produced and secreted by these cells into the culture supernatants was assayed by standard enzyme-linked immunoassay."}, "[5]": {"system": "popliteal lymph node cells", "test": "Proliferation of lymph node cells from GV protein-immunized mice", "assay_type": "cell-based, female BALB/cByJ mice", "conditions": "lymph node cells of mice immunized with 10 μg of the same GV protein in IFA", "description": "as §1"}, "[6]": {"system": "IL-1β, TNF-α, IL-12 and IFN-γ production in PBMC", "test": "Cytokine production in PBMC from normal donors (ELISA)", "assay_type": "cell-based, human"}, "[7]": {"system": "CD40, CD80 and CD86 on B cells", "test": "CD40, CD80 and CD86 expression on B cells (3 color flow cytometry)", "assay_type": "cell-based, human", "conditions": "20 ug/ml, 48 hours, vs non-stimulated cells", "description": "(§2) Stimulated cells were harvested and analyzed for up-regulation of CD40, CD80 and CD86 using 3 color flow cytometric analysis. Tables 16, 17 and 18 show the fold increase in mean fluorescence intensity from control (non-stimulated cells) for dendritic cells, monocytes, and B cells, respectively."}, "[8]": {"system": "CD40, CD80 and CD86 on monocytes", "test": "CD40, CD80 and CD86 expression on monocytes (3 color flow cytometry)", "assay_type": "cell-based, human", "conditions": "20 ug/ml, 48 hours, vs non-stimulated cells", "description": "as §2"}, "[9]": {"conditions": "Dose of GV protein used in vitro 2 μg/ml"}, "[10]": {"conditions": "Dose of GV protein used in vitro 50 μg/ml"}, "[11]": {"conditions": "Dose of GV protein used in vitro 0.08 μg/ml"}, "[12]": {"conditions": "dendritic cells, 20 ug/ml, 48 hours, vs non-stimulated cells"}}, "data": [{"molecule": "Oc1ccc(-c2nc(-c3ccncc3)c(-c3ccc(F)cc3)[nH]2)cc1", "note": "[SB202190]", "values": [{"measurement": "suppression of AVAC-induced production of IL-10 by THP-1 cells", "setting": "[1]", "value": "substantially suppressed in a dose-dependent manner"}]}, {"molecule": "C[S+]([O-])c1ccc(-c2nc(-c3ccncc3)c(-c3ccc(F)cc3)[nH]2)cc1", "note": "(stereo not drawn) [SB203580]", "values": [{"measurement": "suppression of AVAC-induced production of IL-10 by THP-1 cells", "setting": "[1]", "value": "substantially suppressed in a dose-dependent manner"}]}, {"molecule": "cholera toxin [reference compound]", "values": [{"measurement": "CD40, CD80 and CD86 expression in dendritic cells, comparison with adjuvants", "setting": "[2]", "value": "modest"}, {"measurement": "CD69 expression on NK cells, comparison with adjuvants", "setting": "[3]", "value": "did not"}]}, {"molecule": "GV-33: recombinant M. vaccae antigen, amino acid sequence SEQ ID NO: 44 (protein, listed as Mycobacterium vaccae) MVRAALRYGFGTASLLAGGFVLRALQGTPAALGATPGEVAPVARRSPNYRDGKFVNLEPPSGITMDRDLQRMLLRDLANAASQGKPPGPIPLAEPPKGDPTPAPAAASWYGHSSVLIEVDGYRVLADPVWSNRCSPSRAVGPQRMHDVPVPLEALPAVDAVVISHDHYDHLDIDTIVALAHTQRAPFVVPLGIGAHLRKWGVPEARIVELDWHEAHRIDDLTLVCTPARHFSGRLFSRDSTLWASWVVTGSSHKAFFGGDTGYTKSFAEIGDEYGPFDLTLLPIGAYHPAFADIHMNPEEAVRAHLDLTEVDNSLMVPIHWATFRLAPHPWSEPAERLLTAADAERVRLTVPIPGQRVDPESTFDPWWRF", "values": [{"measurement": "IFNγ", "setting": "[4]; [9]", "value": "1.52 ± 0.24", "unit": "ng/mL"}, {"measurement": "IFNγ", "setting": "[4]; Dose of GV protein used in vitro 10 μg/ml", "value": "8.44 ± 2.35", "unit": "ng/mL"}, {"measurement": "IFNγ", "setting": "[4]; [10]", "value": "7.71 ± 0.26", "unit": "ng/mL"}, {"measurement": "Proliferation (cpm)", "setting": "[5]; [11]", "value": "8,764 ± 256 cpm"}, {"measurement": "Proliferation (cpm)", "setting": "[5]; [9]", "value": "27,529 ± 1,238 cpm"}, {"measurement": "Proliferation (cpm)", "setting": "[5]; [10]", "value": "41,529 ± 1,919 cpm"}]}, {"molecule": "GV-35: recombinant M. vaccae antigen, amino acid sequence SEQ ID NO: 45 (protein, listed as Mycobacterium vaccae) MKANHSGCYKSAGPIWSHPSPLCSPALAPSHAGLDNELSLGVHGQGPEHLTIQQWDTFLNGVFPLDRNRLTREWFHSGKATYVVAGEGADEFEGTLELGYHVGFPWSLGVGINFSYTTPNITYDGYGLNFADPLLGFGDSIVTPPLFPGVSITADLGNGPGIQEVATFSVDVAGPGGSVVVSNAHGTVTGAAGGVLLRPFARLISSTGDSVTTYGAPLKHELTTSRWRPPGVNRGPLHAGREAPEVRSKWPTAANACARDSSSLTQGLVVVECHPVTPPHRPRRDGRGSGVWAPALGTYGGDRRRDVTSVAVFAGNPDGPAESPHPSSEPGGSKEF", "values": [{"measurement": "Proliferation (cpm)", "setting": "[5]; [11]", "value": "1,626 ± 406 cpm"}, {"measurement": "Proliferation (cpm)", "setting": "[5]; [9]", "value": "9,968 ± 314 cpm"}, {"measurement": "Proliferation (cpm)", "setting": "[5]; [10]", "value": "29,163 ± 2,693 cpm"}]}, {"molecule": "GV-45: recombinant M. vaccae antigen, amino acid sequence SEQ ID NO: 52 (protein, listed as Mycobacterium vaccae) MNKAELIDVLTEKLGSDRRQATAAVENVVDTIVRAVHKGESVTITGFGVFEQRRRAARVARNPRTGETVKVKPTSVPAFRPGAQFKAVVSGAQKLPAEGPAVKRGVTATSTARKAAKKAPAKKAAAKKAAPAKKAPAKKAATKAAPAKKATAAKKAAPAKKATAAKKAAPAKKAPAKKAATKAAPAKKAPAKKAATKAAPAKKAPAAKKAPAKKAPAKRGGRK", "values": [{"measurement": "production of IL-1β, TNF-α, IL-12 and IFN-γ by PBMC", "setting": "[6]", "value": "stimulate the production of IL-1β, TNF-α and IL-12"}, {"measurement": "CD40 expression, fold increase in mean fluorescence intensity from control", "setting": "[7]", "value": 1.2, "unit": "fold"}, {"measurement": "CD80 expression, fold increase in mean fluorescence intensity from control", "setting": "[7]", "value": 1.1, "unit": "fold"}, {"measurement": "CD86 expression, fold increase in mean fluorescence intensity from control", "setting": "[7]", "value": 1.3, "unit": "fold"}, {"measurement": "CD40 expression, fold increase in mean fluorescence intensity from control", "setting": "[8]", "value": 1.6, "unit": "fold"}, {"measurement": "CD80 expression, fold increase in mean fluorescence intensity from control", "setting": "[8]", "value": 1.2, "unit": "fold"}, {"measurement": "CD86 expression, fold increase in mean fluorescence intensity from control", "setting": "[8]", "value": 1.0, "unit": "fold"}, {"measurement": "CD40, CD80 and CD86 expression on dendritic cells", "setting": "[2]; 20 ug/ml, 48 hours, T cell-depleted PBMC", "value": "highest levels of expression"}, {"measurement": "CD40 expression, fold increase in mean fluorescence intensity from control", "setting": "[2]; [12]", "value": 5.8, "unit": "fold"}, {"measurement": "CD80 expression, fold increase in mean fluorescence intensity from control", "setting": "[2]; [12]", "value": 3.0, "unit": "fold"}, {"measurement": "CD86 expression, fold increase in mean fluorescence intensity from control", "setting": "[2]; [12]", "value": 3.1, "unit": "fold"}, {"measurement": "percentage of αβT cells expressing CD69", "setting": "[3]; PBMC from normal donors, 20 ug/ml, 24 hours, control 3.8", "value": 11.7, "unit": "%"}, {"measurement": "percentage of NK cells expressing CD69", "setting": "[3]; PBMC from normal donors, 20 ug/ml, 24 hours, control 4.8", "value": 6.3, "unit": "%"}, {"measurement": "percentage of γδT cells expressing CD69", "setting": "[3]; PBMC from normal donors, 20 ug/ml, 24 hours, control 6.2", "value": 4.9, "unit": "%"}, {"measurement": "Proliferation (cpm)", "setting": "[5]; [11]", "value": "1,497 ± 199 cpm"}, {"measurement": "Proliferation (cpm)", "setting": "[5]; [9]", "value": "3,683 ± 1,127 cpm"}, {"measurement": "Proliferation (cpm)", "setting": "[5]; [10]", "value": "9,554 ± 482 cpm"}]}]}
